# Reference: patent US4029771A, “Composition for the treatment of bacterial-intestinal infections” (priority 1975, dated 1977)
# How the values were obtained:
# [1] = Storage stability of the liophylized product; assay type: physicochemical
# [2] = system: children affected by acute initial gastroenteropathy; assay: Clinical efficacy test in 32 children with acute initial gastroenteropathy vs chemiantibiotic group; assay type: in vivo
# Method: The tests were conducted on a group of 32 children (14 males, 18 females) of an age group comprised between 2 months and 2 years, affected by acute initial gastroenteropathy.
# The test group comprised forms of substantial gravity (15.6% of the total cases), forms of intermediate gravity (43.7%), and finally forms of least gravity (40.6%), determined by known clinical diagnostic methods.
# In all cases, in addition to the oral or parental rehydration (in 21.8% of the cases there was actually performed a parental rehydration with glucosaline and polyelectric solutions) and to the usual dietetic treatment, there was performed symptomatic therapy with anticholinergic agents.
# The product was administered orally to all the test subjects at a dosage of 300 mg. per day, divided into three equal doses.
# The duration of the therapy varied from a minimum of 5 days to a maximum of 10 days.
# It was thought opportune, on a clinical plane, to evaluate the test results according to the following parameters:
# (1) average time of normalization of the abdomen.
# (2) number and percentage of the cases with regularization of the abdomen within the first 48 hours (see Table II and figure 1).
# (3) average duration of the time of therapy.
# There was further compared the test subjects with a group of subjects of similar age and equally affected by acute initial gastroenteropathy which had received, in addition to the usual symptomatic and dietetic therapy, a chemiantibiotic treatment.
# It is important to note that this second group presented a clinical physionomy similar to that of the test group (and therefore with a percentage division equal between forms of different gravity) and further belonging chronologically to the same epidemiological period.
# [3] = system: male and female rat (Sprague-Dawley); assay: Acute toxicity on single administration, male and female rat (Sprague-Dawley); assay type: in vivo; conditions: for Mortality after 7 days: 1000 mg/kg single dose, 10 rats per dose; for LD50: single administration, 7 days
# Method: (a) Toxicity on single administration.
# The experiment was conducted on rats and mice (male and female) by oral and intraperitoneal administration of conalbumen dissolved in double-distilledsterile water. The animals were kept under control for 7 days following the administration.
# Acute toxicity of the product after a single admini-
# stration to the male and female rat (Sprague-Dawley).
# [4] = system: experimental animals; assay: Tolerability in experimental animals at therapeutically active doses; assay type: in vivo
# [5] = system: germs which are pathogenic to man; assay: Treatment of experimental infections in laboratory animals; assay type: in vivo; conditions: laboratory animals injected with germs pathogenic to man
# [6] = 32 cases per group, product oral 300 mg per day in three doses
# [7] = percentage distribution, drawing
# [8] = product vs chemiantibiotics group
molecule,measurement,setting,value
"conalbumen: transferrin (ovotransferrin or conalbumen) extracted in a pure state from egg white (protein, UniProt P02789 20-705, looked up) Ovotransferrin: APPKSVIRWCTISSPEEKKCNNLRDLTQQERISLTCVQKATYLDCIKAIANNEADAISLDGGQAFEAGLAPYKLKPIAAEVYEHTEGSTTSYYAVAVVKKGTEFTVNDLQGKTSCHTGLGRSAGWNIPIGTLLHRGAIEWEGIESGSVEQAVAKFFSASCVPGATIEQKLCRQCKGDPKTKCARNAPYSGYSGAFHCLKDGKGDVAFVKHTTVNENAPDQKDEYELLCLDGSRQPVDNYKTCNWARVAAHAVVARDDNKVEDIWSFLSKAQSDFGVDTKSDFHLFGPPGKKDPVLKDLLFKDSAIMLKRVPSLMDSQLYLGFEYYSAIQSMRKDQLTPSPRENRIQWCAVGKDEKSKCDRWSVVSNGDVECTVVDETKDCIIKIMKGEADAVALDGGLVYTAGVCGLVPVMAERYDDESQCSKTDERPASYFAVAVARKDSNVNWNNLKGKKSCHTAVGRTAGWVIPMGLIHNRTGTCNFDEYFSEGCAPGSPPNSRLCQLCQGSGGIPPEKCVASSHEKYFGYTGALRCLVEKGDVAFIQHSTVEENTGGKNKADWAKNLQMDDFELLCTDGRRANVMDYRECNLAEVPTHAVVVRPEKANKIRDLLERQEKRFGVNGSEKSKFMMFESQNKDLLFKDLTKCLFKVREGTTYKEFLGDKFYTVISSLKTCNPSDILQMCSFLEGK",Maintains its properties unchanged,"[1]; liophylized, kept at ambient or lower temperature",at least 6 months
same,Period for which the product can be kept,"[1]; vials containing 100 mg. or more, liophylized form",indefinite periods
same,Average time of Therapy,[2]; [6],"6,1 days"
same,Percentage normalization within 48 hours,[2]; [6],"53,1 Percentage"
same,Average time of normalization of the abdomen,"[2]; 32 cases per group, product oral 300 mg per day in three doses, p <0,40","2,56"
same,No. of cases with normalization within 48 hours,"[2]; of 32 cases per group, product oral 300 mg per day in three doses",17
same,Clinical results,[2]; overall,very favorable
same,Clinical results with respect to the group treated with chemiantibiotics,[2]; overall comparison,definitely better
same,"Distribution in the time of normalization of the abdomen, days with most cases",[2]; [7],between the second and third day
same,Peak in the time of normalization of the abdomen,[2]; [7],second day
same,"Average time of normalization of the abdomen, comparison with chemiantibiotics",[2]; [8],slightly lower
same,"Number of cases and percentage of normalization of the abdomen within the first 48 hours, comparison with chemiantibiotics",[2]; [8],higher
same,Mortality after 7 days,"[3]; female 90-105 g, oral",0/10
same,LD50,"[3]; female 90-105 g, oral",> 1000 mg/kg
same,Mortality after 7 days,"[3]; female 100-110 g, i.p.",0/10
same,LD50,"[3]; female 100-110 g, i.p.",> 1000 mg/kg
same,Mortality after 7 days,"[3]; male 100-120 g, i.p.",0/10
same,LD50,"[3]; male 100-120 g, i.p.",> 1000 mg/kg
same,Mortality after 7 days,"[3]; male 100-130 g, oral",0/10
same,LD50,"[3]; male 100-130 g, oral",> 1000 mg/kg
same,Toxic manifestation or significant side effects,[4],does not result in toxic manifestation or in significant side effects
same,Efficacy in experimental infections,[5],surprising efficacy
